Data reported in the supplement of paper PMC5998384.

How the values were obtained:
HeLa Kyoto [1] = experiment: thermal stability score vs G1/S (z-score of summed log2 fold changes over temperatures); higher = more thermally stable than in G1/S
HeLa Kyoto [2] = experiment: solubility in G1/S (NP-40 vs SDS abundance) (log2 ratio); higher = more soluble; conditions: cell cycle stage: G1/S
HeLa Kyoto [3] = experiment: solubility change mitosis vs G1/S (difference of NP-40 vs SDS log2 ratios) (log2 ratio difference); higher = more soluble in mitosis
HeLa Kyoto [4] = experiment: melting temperature (median over replicates), in situ; higher = more thermally stable
[5] = cell cycle stage: early G1 (4.5 h after nocodazole release)
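For melting temperature (median over replicates), in situ in this document: HeLa Kyoto cells synchronized by double thymidine or nocodazole block, proteins quantified by TMT10plex mass spectrometry, three independent biological replicates.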
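For solubility change mitosis vs G1/S (difference of NP-40 vs SDS log2 ratios) in this document: synchronized HeLa Kyoto cells (double thymidine block for G1/S, nocodazole release for mitosis), protein amounts in NP-40 versus SDS lysates quantified by mass spectrometry, three biological replicates.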
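For solubility in G1/S (NP-40 vs SDS abundance) in this document: HeLa Kyoto cells arrested at G1/S by double thymidine block, proteins quantified by TMT10plex mass spectrometry in mild NP-40 versus SDS extracts, three biological replicates.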
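For thermal stability score vs G1/S (z-score of summed log2 fold changes over temperatures) in this document: synchronized HeLa Kyoto cells, proteins quantified by TMT10plex mass spectrometry, three biological replicates, mitosis taken 0.5 h after nocodazole release, G1/S directly after double thymidine block.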

Sequence | thermal stability score (HeLa Kyoto [1]; [5]) | thermal stability score (HeLa Kyoto [1]; cell cycle stage: mitosis) | solubility in G1/S (log2) (HeLa Kyoto [2]) | solubility change mitosis (log2) (HeLa Kyoto [3]) | melting temperature (HeLa Kyoto [4]; cell cycle stage: G1/S) | melting temperature (HeLa Kyoto [4]; cell cycle stage: mitosis)
MAVFDTPEEAFGVLRPVCVQLTKTQTVENVEHLQTRLQAVSDSALQELQQYILFPLRFTLKTPGPKRERLIQSVVECLTFVLSSTCVKEQELLQELFSELSACLYSPSSQKPAAVSEELKLAVIQGLSTLMHSAYGDIILTFYEPSILPRLGFAVSLLLGLAEQEKSKQIKIAALKCLQVLLLQCDCQDHPRSLDELEQKQLGDLFASFLPGISTALTRLITGDFKQGHSIVVSSLKIFYKTVSFIMADEQLKRISKVQAKPAVEHRVAELMVYREADWVKKTGDKLTILIKKIIECVSVHPHWKVRLELVELVEDLLLKCSQSLVECAGPLLKALVGLVNDESPEIQAQCNKVLRHFADQKVVVGNKALADILSESLHSLATSLPRLMNSQDDQGKFSTLSLLLGYLKLLGPKINFVLNSVAHLQRLSKALIQVLELDVADIKIVEERRWNSDDLNASPKTSATQPWNRIQRRYFRFFTDERIFMLLRQVCQLLGYYGNLYLLVDHFMELYHQSVVYRKQAAMILNELVTGAAGLEVEDLHEKHIKTNPEELREIVTSILEEYTSQENWYLVTCLETEEMGEELMMEHPGLQAITSGEHTCQVTSFLAFSKPSPTICSMNSNIWQICIQLEGIGQFAYALGKDFCLLLMSALYPVLEKAGDQTLLISQVATSTMMDVCRACGYDSLQHLINQNSDYLVNGISLNLRHLALHPHTPKVLEVMLRNSDANLLPLVADVVQDVLATLDQFYDKRAASFVSVLHALMAALAQWFPDTGNLGHLQEQSLGEEGSHLNQRPAALEKSTTTAEDIEQFLLNYLKEKDVADGNVSDFDNEEEEQSVPPKVDENDTRPDVEPPLPLQIQIAMDVMERCIHLLSDKNLQIRLKVLDVLDLCVVVLQSHKNQLLPLAHQAWPSLVHRLTRDAPLAVLRAFKVLRTLGSKCGDFLRSRFCKDVLPKLAGSLVTQAPISARAGPVYSHTLAFKLQLAVLQGLGPLCERLDLGEGDLNKVADACLIYLSVKQPVKLQEAARSVFLHLMKVDPDSTWFLLNELYCPVQFTPPHPSLHPVQLHGASGQQNPYTTNVLQLLKELQ [TTI1] | 0.152 | 0.696 | -0.12 | -0.179 | 49.6 °C | 49.9 °C
MAVLLETTLGDVVIDLYTEERPRACLNFLKLCKIKYYNYCLIHNVQRDFIIQTGDPTGTGRGGESIFGQLYGDQASFFEAEKVPRIKHKKKGTVSMVNNGSDQHGSQFLITTGENLDYLDGVHTVFGEVTEGMDIIKKINETFVDKDFVPYQDIRINHTVILDDPFDDPPDLLIPDRSPEPTREQLDSGRIGADEEIDDFKGRSAEEVEEIKAEKEAKTQAILLEMVGDLPDADIKPPENVLFVCKLNPVTTDEDLEIIFSRFGPIRSCEVIRDWKTGESLCYAFIEFEKEEDCEKAFFKMDNVLIDDRRIHVDFSQSVAKVKWKGKGGKYTKSDFKEYEKEQDKPPNLVLKDKVKPKQDTKYDLILDEQAEDSKSSHSHTSKKHKKKTHHCSEEKEDEDYMPIKNTNQDIYREMGFGHYEEEESCWEKQKSEKRDRTQNRSRSRSRERDGHYSNSHKSKYQTDLYERERSKKRDRSRSPKKSKDKEKSKYR [PPIL4] | 1.3 | 1.99 | -0.23 | 0.0472 | 49.2 °C | 50.3 °C
MAVPAAAMGPSALGQSGPGSMAPWCSVSSGPSRYVLGMQELFRGHSKTREFLAHSAKVHSVAWSCDGRRLASGSFDKTASVFLLEKDRLVKENNYRGHGDSVDQLCWHPSNPDLFVTASGDKTIRIWDVRTTKCIATVNTKGENINICWSPDGQTIAVGNKDDVVTFIDAKTHRSKAEEQFKFEVNEISWNNDNNMFFLTNGNGCINILSYPELKPVQSINAHPSNCICIKFDPMGKYFATGSADALVSLWDVDELVCVRCFSRLDWPVRTLSFSHDGKMLASASEDHFIDIAEVETGDKLWEVQCESPTFTVAWHPKRPLLAFACDDKDGKYDSSREAGTVKLFGLPNDS [THOC3] | -1.08 | 1.13 | -0.421 | 0.047 | 50.6 °C | 51.9 °C
MAVPFVEDWDLVQTLGEGAYGEVQLAVNRVTEEAVAVKIVDMKRAVDCPENIKKEICINKMLNHENVVKFYGHRREGNIQYLFLEYCSGGELFDRIEPDIGMPEPDAQRFFHQLMAGVVYLHGIGITHRDIKPENLLLDERDNLKISDFGLATVFRYNNRERLLNKMCGTLPYVAPELLKRREFHAEPVDVWSCGIVLTAMLAGELPWDQPSDSCQEYSDWKEKKTYLNPWKKIDSAPLALLHKILVENPSARITIPDIKKDRWYNKPLKKGAKRPRVTSGGVSESPSGFSKHIQSNLDFSPVNSASSEENVKYSSSQPEPRTGLSLWDTSPSYIDKLVQGISFSQPTCPDHMLLNSQLLGTPGSSQNPWQRLVKRMTRFFTKLDADKSYQCLKETCEKLGYQWKKSCMNQVTISTTDRRNNKLIFKVNLLEMDDKILVDFRLSKGDGLEFKRHFLKIKGKLIDIVSSQKIWLPAT [CHEK1] | 1.82 | 1.62 | 0.104 | -0.07 | 51.7 °C | 51.9 °C
MAVPGVGLLTRLNLCARRRTRVQRPIVRLLSCPGTVAKDLRRDEQPSGSVETGFEDKIPKRRFSEMQNERREQAQRTVLIHCPEKISENKFLKYLSQFGPINNHFFYESFGLYAVVEFCQKESIGSLQNGTHTPSTAMETAIPFRSRFFNLKLKNQTSERSRVRSSNQLPRSNKQLFELLCYAESIDDQLNTLLKEFQLTEENTKLRYLTCSLIEDMAAAYFPDCIVRPFGSSVNTFGKLGCDLDMFLDLDETRNLSAHKISGNFLMEFQVKNVPSERIATQKILSVLGECLDHFGPGCVGVQKILNARCPLVRFSHQASGFQCDLTTNNRIALTSSELLYIYGALDSRVRALVFSVRCWARAHSLTSSIPGAWITNFSLTMMVIFFLQRRSPPILPTLDSLKTLADAEDKCVIEGNNCTFVRDLSRIKPSQNTETLELLLKEFFEYFGNFAFDKNSINIRQGREQNKPDSSPLYIQNPFETSLNISKNVSQSQLQKFVDLARESAWILQQEDTDRPSISSNRPWGLVSLLLPSAPNRKSFTKKKSNKFAIETVKNLLESLKGNRTENFTKTSGKRTISTQT [MTPAP] | 0.65 | 1.8 | -0.331 | 0.114 | 51 °C | 49.8 °C
MAVQESAAQLSMTLKVQEYPTLKVPYETLNKRFRAAQKNIDRETSHVTMVVAELEKTLSGCPAVDSVVSLLDGVVEKLSVLKRKAVESIQAEDESAKLCKRRIEHLKEHSSDQPAAASVWKRKRMDRMMVEHLLRCGYYNTAVKLARQSGIEDLVNIEMFLTAKEVEESLERRETATCLAWCHDNKSRLRKMKSCLEFSLRIQEFIELIRQNKRLDAVRHARKHFSQAEGSQLDEVRQAMGMLAFPPDTHISPYKDLLDPARWRMLIQQFRYDNYRLHQLGNNSVFTLTLQAGLSAIKTPQCYKEDGSSKSPDCPVCSRSLNKLAQPLPMAHCANSRLVCKISGDVMNENNPPMMLPNGYVYGYNSLLSIRQDDKVVCPRTKEVFHFSQAEKVYIM [MAEA] | -0.838 | -0.615 | -0.0777 | -0.0756 | 50.2 °C | 49.3 °C
MAVRALKLLTTLLAVVAAASQAEVESEAGWGMVTPDLLFAEGTAAYARGDWPGVVLSMERALRSRAALRALRLRCRTQCAADFPWELDPDWSPSPAQASGAAALRDLSFFGGLLRRAACLRRCLGPPAAHSLSEEMELEFRKRSPYNYLQVAYFKINKLEKAVAAAHTFFVGNPEHMEMQQNLDYYQTMSGVKEADFKDLETQPHMQEFRLGVRLYSEEQPQEAVPHLEAALQEYFVAYEECRALCEGPYDYDGYNYLEYNADLFQAITDHYIQVLNCKQNCVTELASHPSREKPFEDFLPSHYNYLQFAYYNIGNYTQAVECAKTYLLFFPNDEVMNQNLAYYAAMLGEEHTRSIGPRESAKEYRQRSLLEKELLFFAYDVFGIPFVDPDSWTPEEVIPKRLQEKQKSERETAVRISQEIGNLMKEIETLVEEKTKESLDVSRLTREGGPLLYEGISLTMNSKLLNGSQRVVMDGVISDHECQELQRLTNVAATSGDGYRGQTSPHTPNEKFYGVTVFKALKLGQEGKVPLQSAHLYYNVTEKVRRIMESYFRLDTPLYFSYSHLVCRTAIEEVQAERKDDSHPVHVDNCILNAETLVCVKEPPAYTFRDYSAILYLNGDFDGGNFYFTELDAKTVTAEVQPQCGRAVGFSSGTENPHGVKAVTRGQRCAIALWFTLDPRHSERDRVQADDLVKMLFSPEEMDLSQEQPLDAQQGPPEPAQESLSGSESKPKDEL [P3H1] | 1.77 | 3.07 | -0.0649 | -0.0228 | 53.2 °C | 54.3 °C
MAVSESQLKKMVSKYKYRDLTVRETVNVITLYKDLKPVLDSYVFNDGSSRELMNLTGTIPVPYRGNTYNIPICLWLLDTYPYNPPICFVKPTSSMTIKTGKHVDANGKIYLPYLHEWKHPQSDLLGLIQVMIVVFGDEPPVFSRPISASYPPYQATGPPNTSYMPGMPGGISPYPSGYPPNPSGYPGCPYPPGGPYPATTSSQYPSQPPVTTVGPSRDGTISEDTIRASLISAVSDKLRWRMKEEMDRAQAELNALKRTEEDLKKGHQKLEEMVTRLDQEVAEVDKNIELLKKKDEELSSALEKMENQSENNDIDEVIIPTAPLYKQILNLYAEENAIEDTIFYLGEALRRGVIDLDVFLKHVRLLSRKQFQLRALMQKARKTAGLSDLY [TSG101] | -0.385 | -0.589 | 0.617 | -0.0618 | 50.7 °C | 50.2 °C
MAVSVTPIRDTKWLTLEVCREFQRGTCSRPDTECKFAHPSKSCQVENGRVIACFDSLKGRCSRENCKYLHPPPHLKTQLEINGRNNLIQQKNMAMLAQQMQLANAMMPGAPLQPVPMFSVAPSLATNASAAAFNPYLGPVSPSLVPAEILPTAPMLVTGNPGVPVPAAAAAAAQKLMRTDRLEVCREYQRGNCNRGENDCRFAHPADSTMIDTNDNTVTVCMDYIKGRCSREKCKYFHPPAHLQAKIKAAQYQVNQAAAAQAAATAAAMTQSAVKSLKRPLEATFDLGIPQAVLPPLPKRPALEKTNGATAVFNTGIFQYQQALANMQLQQHTAFLPPVPMVHGATPATVSAATTSATSVPFAATATANQIPIISAEHLTSHKYVTQM [MBNL1] | -3.27 | -3.37 | 0.11 | 0.353 | 52.3 °C | 52.2 °C
MAVTDSLSRAATVLATVLLLSFGSVAASHIEDQAEQFFRSGHTNNWAVLVCTSRFWFNYRHVANTLSVYRSVKRLGIPDSHIVLMLADDMACNPRNPKPATVFSHKNMELNVYGDDVEVDYRSYEVTVENFLRVLTGRIPPSTPRSKRLLSDDRSNILIYMTGHGGNGFLKFQDSEEITNIELADAFEQMWQKRRYNELLFIIDTCQGASMYERFYSPNIMALASSQVGEDSLSHQPDPAIGVHLMDRYTFYVLEFLEEINPASQTNMNDLFQVCPKSLCVSTPGHRTDLFQRDPKNVLITDFFGSVRKVEITTETIKLQQDSEIMESSYKEDQMDEKLMEPLKYAEQLPVAQIIHQKPKLKDWHPPGGFILGLWALIIMVFFKTYGIKHMKFIF [PIGK] | 1.4 | 0.424 | -0.134 | -0.0814 | 53.5 °C | 53.5 °C
MAVVPLLLLGGLWSAVGASSLGVVTCGSVVKLLNTRHNVRLHSHDVRYGSGSGQQSVTGVTSVDDSNSYWRIRGKSATVCERGTPIKCGQPIRLTHVNTGRNLHSHHFTSPLSGNQEVSAFGEEGEGDYLDDWTVLCNGPYWVRDGEVRFKHSSTEVLLSVTGEQYGRPISGQKEVHGMAQPSQNNYWKAMEGIFMKPSELLKAEAHHAEL [SDF2] | 4.15 | 3.09 | 0.097 | -0.129 | 54.3 °C | 54.1 °C
